Results on 4 molecules are retold here after patent US20080311034A1 (published 2008).

Test [1] deals with T1, recombinant human His-tagged FcγRIIa (R&D Systems #1330-CD-050) (human, UniProt P12318 36-218, limits assumed).
T1 construct: Bought; also called CD32a; recombinant, soluble, human FcγRIIa
T1 sequence (looked up): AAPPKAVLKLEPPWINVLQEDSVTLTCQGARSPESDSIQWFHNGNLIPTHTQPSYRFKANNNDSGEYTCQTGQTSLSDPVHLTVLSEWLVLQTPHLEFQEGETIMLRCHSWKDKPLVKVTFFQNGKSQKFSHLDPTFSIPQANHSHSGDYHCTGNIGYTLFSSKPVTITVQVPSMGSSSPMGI
In words: AlphaScreen, His-tagged FcγRIIa on nickel acceptor beads. As to the method: FcγRIIa (CD32a) AlphaScreen—Nickel acceptor beads (Perkin Elmer #6760619C) were diluted 1:50 in assay buffer (PBS, pH 7.4, 4 mg/ml BSA, 0.01% Tween-20), and 27.5 μl were added to each well of a Nunc V-bottom polypropylene plate (VWR # 62409-108) (Powers G., Notebook 9006, pp. 169-175, 182-185). A 2.0 μg/ml solution of recombinant human His-tagged FcγRIIa (R&D Systems #1330-CD-050) was prepared in assay buffer and 27.5 μl added to each well of a separate Nunc V bottom polypropylene plate. Titrations of test Abs were prepared in the Nunc V bottom polypropylene plate starting at 30 μg/ml. A 2 μg/ml solution of biotinylated goat F(ab′)₂ anti-human IgG F(ab′)₂ (Jackson Immunoresearch #109-066-097) was prepared in assay buffer and 27.5 μl added to each well of another Nunc V bottom polypropylene plate. A 1:50 dilution of streptavidin donor beads (PerkinElmer # 6760002) was prepared in assay buffer and 27.5 μl added to each well of another Nunc V bottom polypropylene plate. A volume of 5 μl of each reagent was added to the corresponding quadrants of a low-volume, non-binding white 384-well plate (Corning # 3673) in the following order: acceptor beads, FcγRIIa, test Ab, biotinylated anti-human IgG F(ab′)₂, and streptavidin donor beads. The plates were incubated for 30 minutes with shaking and the O.D.s determined using an Envision plate reader.
For orientation: Alpha assays give light when donor and acceptor beads are brought close together.

In test [2] the target is T2, recombinant polyhistidine tagged mouse FcγRI (R&D Systems) (mouse, UniProt P26151 25-297).
T2 construct: Bought; also called murine FcγRI
T2 sequence (looked up): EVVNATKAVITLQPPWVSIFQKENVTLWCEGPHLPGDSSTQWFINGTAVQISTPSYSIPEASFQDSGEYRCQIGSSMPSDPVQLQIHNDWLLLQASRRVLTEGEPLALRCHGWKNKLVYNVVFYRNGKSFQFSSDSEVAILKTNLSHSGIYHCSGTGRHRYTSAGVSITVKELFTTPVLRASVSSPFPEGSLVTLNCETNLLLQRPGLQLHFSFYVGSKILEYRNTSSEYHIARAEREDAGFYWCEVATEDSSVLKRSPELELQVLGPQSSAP
As to the kind of experiment: ELISA, His-tagged mouse receptor captured on copper-coated plate. As to the method: (§1) Commercially-available recombinant polyhistidine tagged mouse FcγRI, FcγRII, FcγRIII, and FcγRIV (R&D Systems) were diluted to 1 μg/ml in PBS and 100 μl/well was captured onto copper-coated plates (Pierce) overnight at 4° C. Plates were washed three times with wash buffer (0.15M NaCl, 0.02% Tween 20). Non-specific binding was blocked using 200 μl/well SuperBlock (Pierce) for 15 minutes at room temperature. Plates were washed three times as above. […] Plates were washed three times as above to remove unbound mAb. CNTO 860 variants that bound to plated receptors were detected using 100 μl/well HRP-labeled goat F(ab′)₂ anti-human IgG F(ab′)₂ (Jackson ImmunoResearch) diluted 1:5,000 in PBS incubated at room temperature for 1 hour. Plates were washed five times using wash buffer as above, and developed using 100 μl/well TMB Stable Stop substrate (Fitzgerald Industries) stopped with 0.5M HCl. Absorbance was detected at 450 nm.
(§2) All binding assays were in an ELISA format, with recombinant soluble receptor captured on coated EIA plates.
(ELISA stands for enzyme-linked immunosorbent assay.)

For test [3], the target named is T3, recombinant polyhistidine tagged mouse FcγRII (R&D Systems) (mouse, UniProt P08101 40-217, limits assumed).
T3 construct: Bought; also called FcRII
T3 sequence (looked up): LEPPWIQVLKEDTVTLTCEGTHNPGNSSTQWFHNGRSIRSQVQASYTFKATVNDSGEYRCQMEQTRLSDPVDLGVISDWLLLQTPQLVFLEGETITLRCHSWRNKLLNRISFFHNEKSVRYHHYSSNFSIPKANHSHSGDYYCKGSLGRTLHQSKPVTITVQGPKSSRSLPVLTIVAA
The description is as above. The protocol: as §1, §2

Test [4] addresses T4, recombinant polyhistidine tagged mouse FcγRIII (R&D Systems) (mouse, UniProt P08508 31-215).
T4 construct: Bought
T4 sequence (looked up): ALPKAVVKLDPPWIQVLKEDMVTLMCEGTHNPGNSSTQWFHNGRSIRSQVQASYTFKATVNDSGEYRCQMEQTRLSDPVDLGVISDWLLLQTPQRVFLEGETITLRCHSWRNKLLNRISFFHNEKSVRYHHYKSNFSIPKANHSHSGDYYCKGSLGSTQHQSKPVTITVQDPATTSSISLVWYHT
The description is as above. As to the method: as §1, §2

In test [5] the target is T5, recombinant polyhistidine tagged mouse FcγRIV (R&D Systems) (mouse, UniProt A0A0B4J1G0 21-203).
T5 construct: Bought
T5 sequence: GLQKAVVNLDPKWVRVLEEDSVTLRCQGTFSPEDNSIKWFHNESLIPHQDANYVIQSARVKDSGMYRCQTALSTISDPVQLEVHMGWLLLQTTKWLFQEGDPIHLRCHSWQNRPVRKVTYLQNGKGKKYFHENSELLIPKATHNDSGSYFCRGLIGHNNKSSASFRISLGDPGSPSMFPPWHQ
The description is as above. As to the method:
as §1, §2

B1: YB2/0-CNTO 860 I332E (antibody, human IgG1, kappa)
heavy: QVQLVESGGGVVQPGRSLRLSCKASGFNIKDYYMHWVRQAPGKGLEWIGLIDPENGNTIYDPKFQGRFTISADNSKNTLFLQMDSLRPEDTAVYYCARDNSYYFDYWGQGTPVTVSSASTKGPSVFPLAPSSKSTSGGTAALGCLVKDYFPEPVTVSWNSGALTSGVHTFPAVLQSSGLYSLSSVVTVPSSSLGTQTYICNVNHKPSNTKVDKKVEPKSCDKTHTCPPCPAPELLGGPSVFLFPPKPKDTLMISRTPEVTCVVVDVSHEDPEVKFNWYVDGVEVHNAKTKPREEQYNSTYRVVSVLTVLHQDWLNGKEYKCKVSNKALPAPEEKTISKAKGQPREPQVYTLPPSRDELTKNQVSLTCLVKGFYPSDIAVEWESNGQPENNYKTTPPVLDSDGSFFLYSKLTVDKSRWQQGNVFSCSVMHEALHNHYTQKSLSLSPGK
light: DIQMTQSPSSLSASVGDRVTITCKASQDIRKYLNWYQQKPGKAPKLLIYYATSLADGVPSRFSGSGSGTDYTFTISSLQPEDIATYYCLQHGESPYTFGQGTKLEITRTVAAPSVFIFPPSDEQLKSGTASVVCLLNNFYPREAKVQWKVDNALQSGNSQESVTEQDSKDSTYSLSSTLTLSKADYEKHKVYACEVTHQGLSSPVTKSFNRGEC
modifications: Heavy chain N297 carries the YB2/0-type low-fucose N-linked glycan; not carried by the letters.
notes: IgG1/kappa Fc variant; stably expressed in YB2/0 cells (p4148/p2402), low-fucose glycan; EU numbering; also called I332E (YB2/0 cell-derived); I332E from YB2/0 cells; copies: 2 + 2
For the molecule B1, in test [1], the “concentration (ng/ml) required for a set O.D. signal” value (shortened to “concentration (ng/ml) required”) was 60 ng/mL. The “ECOD1 (concentration required for an O.D. value of 1.0)” value (“ECOD1” for short) in test [2] amounted to 5000 ng/mL; in test [3], 700 ng/mL; in test [4], 600 ng/mL; in test [5], 7 ng/mL.

B2: YB2/0-CNTO 860 WT (antibody, human IgG1, kappa)
heavy: not shown
light: DIQMTQSPSSLSASVGDRVTITCKASQDIRKYLNWYQQKPGKAPKLLIYYATSLADGVPSRFSGSGSGTDYTFTISSLQPEDIATYYCLQHGESPYTFGQGTKLEITRTVAAPSVFIFPPSDEQLKSGTASVVCLLNNFYPREAKVQWKVDNALQSGNSQESVTEQDSKDSTYSLSSTLTLSKADYEKHKVYACEVTHQGLSSPVTKSFNRGEC
modifications: Heavy chain N297 carries the YB2/0-type N-linked glycan (40-60% fucosylated); not carried by the letters.
notes: Anti-human tissue factor human IgG1/kappa; stably expressed in rat YB2/0 cells (p2401/p2402; YB2/0 Abs typically 40-60% fucosylated), purified by protein A; also called WT (YB2/0 cell-derived); WT from YB2/0 cells; copies: 2 + 2
In the case of B2, the “concentration (ng/ml) required” value in test [1] is 63 ng/mL. Moreover, the “ECOD1” value came to 12000 ng/mL in test [2], 3000 ng/mL in test [3], 4000 ng/mL in test [4] and 30 ng/mL in test [5].

B3: YB2/0-CNTO 860 V264I/I332E (antibody, human IgG1, kappa)
heavy: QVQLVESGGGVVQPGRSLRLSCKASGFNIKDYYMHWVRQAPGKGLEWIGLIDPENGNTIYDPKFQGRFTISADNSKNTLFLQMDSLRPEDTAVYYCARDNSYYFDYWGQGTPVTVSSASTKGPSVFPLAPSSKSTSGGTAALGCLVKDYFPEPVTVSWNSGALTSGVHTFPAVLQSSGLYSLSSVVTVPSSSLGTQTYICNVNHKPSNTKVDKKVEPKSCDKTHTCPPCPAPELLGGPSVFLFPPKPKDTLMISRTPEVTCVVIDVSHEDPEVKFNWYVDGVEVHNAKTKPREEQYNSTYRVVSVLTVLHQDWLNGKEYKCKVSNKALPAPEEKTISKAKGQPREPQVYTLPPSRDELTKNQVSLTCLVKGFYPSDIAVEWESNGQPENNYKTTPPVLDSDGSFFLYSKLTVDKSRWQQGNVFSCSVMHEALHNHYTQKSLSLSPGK
light: DIQMTQSPSSLSASVGDRVTITCKASQDIRKYLNWYQQKPGKAPKLLIYYATSLADGVPSRFSGSGSGTDYTFTISSLQPEDIATYYCLQHGESPYTFGQGTKLEITRTVAAPSVFIFPPSDEQLKSGTASVVCLLNNFYPREAKVQWKVDNALQSGNSQESVTEQDSKDSTYSLSSTLTLSKADYEKHKVYACEVTHQGLSSPVTKSFNRGEC
modifications: N-linked glycan at heavy chain Asn297 (YB2/0-type, low fucose); not carried by the letters
notes: IgG1/kappa Fc variant; stably expressed in YB2/0 cells (p4180/p2402); EU numbering; also called V264I/I332E (YB2/0 cell-derived); copies: 2 + 2
In the case of B3, the “concentration (ng/ml) required” value in test [1] came out at 90 ng/mL. The “ECOD1” value is 3000 ng/mL in test [2], 1600 ng/mL in test [3], 6000 ng/mL in test [4] and 7 ng/mL in test [5].

B4: YB2/0-CNTO 860 S239D/I332E (antibody, human IgG1, kappa)
heavy: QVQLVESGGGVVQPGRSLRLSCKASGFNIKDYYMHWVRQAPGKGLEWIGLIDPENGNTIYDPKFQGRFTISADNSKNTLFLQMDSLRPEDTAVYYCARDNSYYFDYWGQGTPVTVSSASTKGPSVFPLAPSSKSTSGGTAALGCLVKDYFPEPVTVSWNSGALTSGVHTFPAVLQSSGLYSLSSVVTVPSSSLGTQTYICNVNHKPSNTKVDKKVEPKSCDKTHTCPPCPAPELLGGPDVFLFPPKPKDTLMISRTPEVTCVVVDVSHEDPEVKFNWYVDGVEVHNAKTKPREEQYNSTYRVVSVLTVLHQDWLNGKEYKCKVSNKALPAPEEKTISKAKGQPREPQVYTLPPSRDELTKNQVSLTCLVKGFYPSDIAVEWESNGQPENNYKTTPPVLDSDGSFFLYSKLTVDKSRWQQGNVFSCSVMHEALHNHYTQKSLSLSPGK
light: DIQMTQSPSSLSASVGDRVTITCKASQDIRKYLNWYQQKPGKAPKLLIYYATSLADGVPSRFSGSGSGTDYTFTISSLQPEDIATYYCLQHGESPYTFGQGTKLEITRTVAAPSVFIFPPSDEQLKSGTASVVCLLNNFYPREAKVQWKVDNALQSGNSQESVTEQDSKDSTYSLSSTLTLSKADYEKHKVYACEVTHQGLSSPVTKSFNRGEC
modifications: N-linked glycan at heavy chain Asn297 (YB2/0-type, low fucose); not carried by the letters
notes: IgG1/kappa Fc variant; stably expressed in YB2/0 cells (p4179/p2402); EU numbering; also called S239D/I332E (YB2/0 cell-derived); copies: 2 + 2
B4: the “concentration (ng/ml) required” value in test [1] was found to be 60 ng/mL. In addition, the “ECOD1” value in test [2] is 1900 ng/mL; in test [3], 6000 ng/mL; in test [4], 2800 ng/mL; in test [5], 7 ng/mL.
